# Reference: the supplement of paper PMC9112550, “Optimization of the antimicrobial peptide Bac7 by deep mutational scanning” (BMC Biology, 2022)
# System: Escherichia coli TOP10
# Experiment: shrunken log2 fold change of peptide-encoding DNA abundance (4.5 h post-induction vs induction); higher = less antimicrobial activity (less host growth inhibition)
# Conditions: time post-induction: 4.5 h; library: site-saturation at positions 5, 18, 19, 20
# 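Further: peptides expressed intracellularly from a pBAD plasmid library in pooled LB shake-flask culture, induced with 0.3% L-arabinose, DNA abundance read by NGS, three biological replicates, DESeq2 with apeglm shrinkage.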
row,Sequence,shrunken log2 fold change
1,RRIRLRPPRLPRPRPRPICRPRP,-0.13
2,RRIRPRPPRLPRPRPRPGNLPRP,-0.376
3,RRIRNRPPRLPRPRPRPKDEPRP,0.536
4,RRIRNRPPRLPRPRPRPFDRPRP,0.0368
5,RRIRQRPPRLPRPRPRPTNNPRP,-0.547
6,RRIRVRPPRLPRPRPRPESCPRP,0.242
7,RRIRIRPPRLPRPRPRPHVMPRP,-0.492
8,RRIRIRPPRLPRPRPRPLFYPRP,-0.633
9,RRIRGRPPRLPRPRPRPMPYPRP,0.0877
10,RRIRMRPPRLPRPRPRPKTVPRP,0.847
11,RRIRYRPPRLPRPRPRPPRDPRP,0.102
12,RRIRFRPPRLPRPRPRPDNWPRP,-0.25
13,RRIRFRPPRLPRPRPRPSTIPRP,-0.45
14,RRIRHRPPRLPRPRPRPAQRPRP,0.359
15,RRIRFRPPRLPRPRPRPMQPPRP,0.287
16,RRIRRRPPRLPRPRPRPSRRPRP,-0.0701
17,RRIRQRPPRLPRPRPRPSRTPRP,-0.29
18,RRIRTRPPRLPRPRPRPAYHPRP,-0.0827
19,RRIRDRPPRLPRPRPRPFQAPRP,0.0185
20,RRIRARPPRLPRPRPRPPIEPRP,0.188
21,RRIRYRPPRLPRPRPRPDINPRP,-0.162
22,RRIRARPPRLPRPRPRPMAAPRP,3.13
23,RRIRKRPPRLPRPRPRPMAHPRP,-0.000911
24,RRIRRRPPRLPRPRPRPIIWPRP,-0.0862
25,RRIRWRPPRLPRPRPRPMYLPRP,-0.507

row,Sequence,shrunken log2 fold change
1,RRIRSRPPRLPRPRPRPWCRPRP,-0.398
2,RRIRVRPPRLPRPRPRPMAMPRP,-0.00688
3,RRIRHRPPRLPRPRPRPWLGPRP,-0.0973
4,RRIRMRPPRLPRPRPRPGMWPRP,0.292
5,RRIRWRPPRLPRPRPRPMEDPRP,0.383
6,RRIRSRPPRLPRPRPRPNMPPRP,-0.278
7,RRIRYRPPRLPRPRPRPTDYPRP,-0.746
8,RRIRARPPRLPRPRPRPKTSPRP,0.331
9,RRIRQRPPRLPRPRPRPGGDPRP,0.0869
10,RRIRERPPRLPRPRPRPSVLPRP,-0.312
11,RRIRLRPPRLPRPRPRPGRYPRP,-0.124
12,RRIRKRPPRLPRPRPRPYVYPRP,-0.154
13,RRIRARPPRLPRPRPRPKDAPRP,0.347
14,RRIRGRPPRLPRPRPRPNSNPRP,0.0841
15,RRIRERPPRLPRPRPRPCYPPRP,-0.498
16,RRIRARPPRLPRPRPRPMPLPRP,-0.0326
17,RRIRPRPPRLPRPRPRPMDRPRP,0.247
18,RRIRHRPPRLPRPRPRPSANPRP,-0.228
19,RRIRLRPPRLPRPRPRPFQGPRP,0.0498
20,RRIRFRPPRLPRPRPRPARPPRP,0.287
21,RRIRFRPPRLPRPRPRPLMYPRP,-0.323
22,RRIRVRPPRLPRPRPRPAVCPRP,0.258
23,RRIRIRPPRLPRPRPRPIPRPRP,0.0123
24,RRIRDRPPRLPRPRPRPAVKPRP,0.368
25,RRIRPRPPRLPRPRPRPNSYPRP,-0.464

row,Sequence,shrunken log2 fold change
1,RRIRLRPPRLPRPRPRPQLEPRP,-0.0629
2,RRIRYRPPRLPRPRPRPATWPRP,-0.154
3,RRIRNRPPRLPRPRPRPAIQPRP,-0.0231
4,RRIRWRPPRLPRPRPRPSTAPRP,0.316
5,RRIRYRPPRLPRPRPRPEFSPRP,-0.307
6,RRIRQRPPRLPRPRPRPNFWPRP,-0.00668
7,RRIRSRPPRLPRPRPRPWYQPRP,-0.314
8,RRIRVRPPRLPRPRPRPEVLPRP,0.244
9,RRIRRRPPRLPRPRPRPCEEPRP,0.218
10,RRIRMRPPRLPRPRPRPNSRPRP,0.169
11,RRIRSRPPRLPRPRPRPGDGPRP,0.78
12,RRIRIRPPRLPRPRPRPYTCPRP,-0.0187
13,RRIRIRPPRLPRPRPRPWWVPRP,-0.077
14,RRIRSRPPRLPRPRPRPGRLPRP,0.00392
15,RRIRARPPRLPRPRPRPGRIPRP,0.148
16,RRIRTRPPRLPRPRPRPVDSPRP,0.0391
17,RRIRYRPPRLPRPRPRPQNDPRP,-1.63
18,RRIRLRPPRLPRPRPRPDEWPRP,-0.0118
19,RRIRDRPPRLPRPRPRPRASPRP,0.214
20,RRIRIRPPRLPRPRPRPTWDPRP,0.372
21,RRIRRRPPRLPRPRPRPQKFPRP,-0.0996
22,RRIRDRPPRLPRPRPRPMMQPRP,0.0408
23,RRIRVRPPRLPRPRPRPYVGPRP,-0.0869
24,RRIRDRPPRLPRPRPRPWLCPRP,-0.0939
25,RRIRPRPPRLPRPRPRPGMIPRP,0.0107

row,Sequence,shrunken log2 fold change
1,RRIRWRPPRLPRPRPRPQCPPRP,-0.357
2,RRIRARPPRLPRPRPRPECYPRP,0.361
3,RRIRNRPPRLPRPRPRPYCIPRP,-0.177
4,RRIRSRPPRLPRPRPRPQQPPRP,-0.273
5,RRIRNRPPRLPRPRPRPNSEPRP,-0.258
6,RRIRRRPPRLPRPRPRPNCIPRP,0.104
7,RRIRDRPPRLPRPRPRPHSFPRP,0.0961
8,RRIRTRPPRLPRPRPRPLSGPRP,-0.0581
9,RRIRLRPPRLPRPRPRPKQGPRP,-0.0685
10,RRIRFRPPRLPRPRPRPMHCPRP,-0.253
11,RRIRGRPPRLPRPRPRPQVQPRP,0.273
12,RRIRGRPPRLPRPRPRPVMQPRP,0.775
13,RRIRGRPPRLPRPRPRPYPEPRP,0.0556
14,RRIRGRPPRLPRPRPRPRNEPRP,0.725
15,RRIRLRPPRLPRPRPRPCQPPRP,-0.0919
16,RRIRSRPPRLPRPRPRPAQRPRP,0.105
17,RRIRLRPPRLPRPRPRPHKWPRP,-0.0343
18,RRIRTRPPRLPRPRPRPDLSPRP,0.057
19,RRIRWRPPRLPRPRPRPSICPRP,-0.0271
20,RRIRFRPPRLPRPRPRPMIAPRP,-0.195
21,RRIRCRPPRLPRPRPRPLEIPRP,-0.164
22,RRIRFRPPRLPRPRPRPLLKPRP,-0.321
23,RRIRLRPPRLPRPRPRPISKPRP,-0.125
24,RRIRARPPRLPRPRPRPRCHPRP,0.308
25,RRIRDRPPRLPRPRPRPPQTPRP,0.115

row,Sequence,shrunken log2 fold change
1,RRIRPRPPRLPRPRPRPAKSPRP,0.179
2,RRIRMRPPRLPRPRPRPKSMPRP,0.0732
3,RRIRMRPPRLPRPRPRPHIVPRP,0.0532
4,RRIRVRPPRLPRPRPRPAWNPRP,0.219
5,RRIRYRPPRLPRPRPRPACHPRP,-0.453
6,RRIRQRPPRLPRPRPRPACYPRP,-0.18
7,RRIRDRPPRLPRPRPRPGAHPRP,0.651
8,RRIRARPPRLPRPRPRPSNAPRP,0.133
9,RRIRIRPPRLPRPRPRPMQSPRP,0.0163
10,RRIRNRPPRLPRPRPRPPVDPRP,0.36
11,RRIRDRPPRLPRPRPRPGAIPRP,0.271
12,RRIRNRPPRLPRPRPRPERFPRP,0.128
13,RRIRSRPPRLPRPRPRPTEDPRP,0.14
14,RRIRKRPPRLPRPRPRPPVHPRP,0.273
15,RRIRHRPPRLPRPRPRPCACPRP,-0.176
16,RRIRARPPRLPRPRPRPLHRPRP,0.281
17,RRIRCRPPRLPRPRPRPEHAPRP,0.999
18,RRIRVRPPRLPRPRPRPKGPPRP,0.36
19,RRIRSRPPRLPRPRPRPQLAPRP,0.0789
20,RRIRMRPPRLPRPRPRPAGHPRP,1.24
21,RRIRKRPPRLPRPRPRPLCYPRP,-0.213
22,RRIRLRPPRLPRPRPRPKGTPRP,0.0017
23,RRIRSRPPRLPRPRPRPPGPPRP,0.64
24,RRIRERPPRLPRPRPRPDKNPRP,-0.383
25,RRIRHRPPRLPRPRPRPYIYPRP,-0.347
